Experimental data reported in PMC9236607, “TUBA1A tubulinopathy mutants disrupt neuron morphogenesis and override XMAP215/Stu2 regulation of microtubule dynamics” (eLife, 2022).

Molecular target: T1, purified budding yeast tubulin heterodimer, Tub1-WT (internal 6X-His) with Tub2 (S. cerevisiae, UniProt P09733 1-447; P02557 1-457)
T1 construct: alpha-tubulin Tub1, S. cerevisiae, from pRS426-GAL-Tub1-internal 6X-His (Johnson et al., 2011); beta-tubulin Tub2, S. cerevisiae, untagged, from pRS424-GAL-Tub2 (Johnson et al., 2011); also called WT tubulin; WT yeast tubulin; source: S. cerevisiae JEL1 (protease deficient), overexpressed from GAL plasmids, purified (His60 Ni column, HiTrap Q)
T1 sequence (P09733 whole entry, chain 1 of 2): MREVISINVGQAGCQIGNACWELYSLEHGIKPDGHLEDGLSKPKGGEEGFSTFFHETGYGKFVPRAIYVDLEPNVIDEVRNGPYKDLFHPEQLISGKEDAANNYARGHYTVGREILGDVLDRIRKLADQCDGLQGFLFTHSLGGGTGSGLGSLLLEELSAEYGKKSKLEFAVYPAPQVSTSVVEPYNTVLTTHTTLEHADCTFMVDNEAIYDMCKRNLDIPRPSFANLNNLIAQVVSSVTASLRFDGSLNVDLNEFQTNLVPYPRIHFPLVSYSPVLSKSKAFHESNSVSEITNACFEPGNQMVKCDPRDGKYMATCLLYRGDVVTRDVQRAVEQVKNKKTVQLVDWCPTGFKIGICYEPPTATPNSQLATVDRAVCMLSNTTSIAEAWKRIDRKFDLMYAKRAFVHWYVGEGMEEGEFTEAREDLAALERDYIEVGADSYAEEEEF
T1 sequence (P02557 whole entry, chain 2 of 2): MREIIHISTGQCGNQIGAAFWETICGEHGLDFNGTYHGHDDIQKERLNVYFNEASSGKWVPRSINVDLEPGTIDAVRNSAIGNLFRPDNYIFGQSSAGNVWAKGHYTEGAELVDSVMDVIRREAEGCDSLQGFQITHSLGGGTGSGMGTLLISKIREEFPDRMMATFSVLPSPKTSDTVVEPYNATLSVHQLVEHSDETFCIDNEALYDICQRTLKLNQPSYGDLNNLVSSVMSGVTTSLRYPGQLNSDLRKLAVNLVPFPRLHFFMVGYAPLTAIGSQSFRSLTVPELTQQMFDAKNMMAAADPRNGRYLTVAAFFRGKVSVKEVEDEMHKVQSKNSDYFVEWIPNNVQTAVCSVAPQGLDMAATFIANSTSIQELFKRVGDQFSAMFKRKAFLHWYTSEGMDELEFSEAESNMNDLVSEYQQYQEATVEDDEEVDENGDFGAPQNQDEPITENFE
Assay: pull-down; 100 nM tubulin mixed with 9.8 nM to 5 µM GST-TOG1/2 at 4°C for 15 min, then glutathione magnetic agarose beads, 4°C, 1 hr; beads equilibrated in 125 mM Tris-HCl, 150 mM KCl, 1 mM DTT, 1 mM EDTA, pH 7.4; unbound tubulin left in the supernatant read by western blot for α- and β-tubulin
Conditions: both partners purified

- binding result: binds
B1: GST-TOG1/2 (the two TOG domains of Stu2 fused to a GST tag, Stu2 1-590) (domain or fragment, S. cerevisiae, UniProt P46675 1-590, looked up)
chain: MSGEEEVDYTTLPLEERLTYKLWKARLEAYKELNQLFRNSVGDISRDDNIQIYWRDPTLFAQYITDSNVVAQEQAIVALNSLIDAFASSSLKNAHNITLISTWTPLLVEKGLTSSRATTKTQSMSCILSLCGLDTSITQSVELVIPFFEKKLPKLIAAAANCVYELMAAFGLTNVNVQTFLPELLKHVPQLAGHGDRNVRSQTMNLIVEIYKVTGNNSDLLEEILFKKLKPIQVKDLHKLFAKVGDEPSSSKMLFEWEKRELEKKRSQEEEARKRKSILSNDEGEYQIDKDGDTLMGMETDMPPSKQQSGVQIDTFSMLPEETILDKLPKDFQERITSSKWKDRVEALEEFWDSVLSQTKKLKSTSQNYSNLLGIYGHIIQKDANIQAVALAAQSVELICDKLKTPGFSKDYVSLVFTPLLDRTKEKKPSVIEAIRKALLTICKYYDPLASSGRNEDMLKDILEHMKHKTPQIRMECTQLFNASMKEEKDGYSTLQRYLKDEVVPIVIQIVNDTQPAIRTIGFESFAILIKIFGMNTFVKTLEHLDNLKRKKIEETVKTLPNFSIASGSTHSTIETNKQTGPMENKFLLK
notes: Stu2 (yeast homologue of XMAP215), S. cerevisiae, residues 1-590 with the TOG1 and TOG2 domains, from pGEX-6P-1 Stu2 1-590 (Widlund et al., 2012); also called Stu2 TOG1/2 domains; Stu2 TOG1/TOG2 domains; source: E. coli BL21, purified (GSTrap HP, eluted with reduced glutathione); not shown: GST, N-terminal, kept
